Laboratory results published in the nanobody polyreactivity screen of Harvey et al. (2022).

Experiment: yeast display, Sf9 membrane polyspecificity reagent, FACS + sequencing; frameworks hold sequencing errors
How it was run: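 Polyreactivity labels are assigned by the sorting gate from which each nanobody was recovered. The gates were low and high (top ~1%), set on anti-HA fluorescence for expression and streptavidin fluorescence for reagent binding. Before sorting, galactose-induced (36–48 hours) yeast display cells were stained for 1 hour at 4 °C with 10% biotinylated, detergent-solubilized Sf9 membrane reagent.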

Sequence	polyreactivity (PSR sort gate)
QVQLVESGGGLVQAGGSLRLSCAASGSIFQNYAMGWYRQAPGKERELVAAISWSGDTYYADSVKGRFTISRDNAKNTVYLQMNSLKPEDTAVYYCAATYPYSLYYPYYGGDYDYWGQGTQVTVSS	low polyreactivity
QVQLVESGGGLVQAGGSLRLSCAASGRIFAHNAMGWYRQAPGKERELGASINSGGSTTYADSVKGRFTISRDNAKNTVYLQMNSLKPEDTAVYDCAKRDKYGKYDYWGQGTQVTVSS	low polyreactivity
QVQLVESAGGLVQAGGSLSLSCAANGFTFTYYTMGWYRQAPGKERELVAAITENGGSTYYADSVKGRFTISRDNAKNTVYLQMNSLKPEDTAVYYCNARVWDYGGHGYDYWGQGTQVTVSS	low polyreactivity
QVQLVESGGGLVQAGGSLRLSCAASGLIFRGYAMGWYIQAPGKERELVAAISKSGGSTYYADSVKGRFTISRDNAKNTVYLQMNSLKPEDTAVYYCNTDYDWKYFLSSQYDYWGQGTQVTVSS	high polyreactivity
QVQLVESGGGLVQAGGSLRLSCAASGFTSNYYAMGWYRQAPGKERELVAAITTGGSTHYADSVKGRFTISRDNAKNTVYLQMNSLKPEDTAVYYCAAGTNRQQQRYFHPGGYYQYNYWGQGSQVTVSS	low polyreactivity
QVQLVESGGGLVQAGGSLRLSCAASGSTFKSYAMGWYRQAPGKERELVAAITHRGSTYYADSVKGRFTISRDNAKNTVDLQMNSLKPEDTAVYYCNVRRIGNGRRVDYWGQGTQVTVSS	high polyreactivity
QVQLVESGGGLVQAGGSLRLSCAASGSTLWANAMGWYRQAPGKERELVAAISWRGGRTYYADSVKGRFTISRDNAKNTVYLQMNSLKPEDTAVYYCNAVSYYRPRSDYGGQGTQVTVSS	high polyreactivity
QVQLVESGGGLVQAGGSLRLSCAASGSTFSYNAMVWYRQAPRKERELVAAISRRGDNTYYADSVKGRFTISRDNAKNTVYLQMYSLKPEDTAVYYCAAVGYFVKQYAPRYGYWGHGTQVTVSS	low polyreactivity
QVQLVESGGGLVQAGGSLRLSCAASGLIFSRNAMGWYRQAPGKERELVAAISGGGGSTYYADSVKGRFTISRDNAKNNVYLQMHSLKQEATAVYDCAAKGYWWRTPWIATYDYWGQGTQVTVSS	high polyreactivity
QVQLVESGGGLVQAGGSLRLSCAASGSTFWFYAMGWYRQAPGKERELDAAISNGDSTNYADSVKGRFTISRDNAKNTVYLQMNSLKPEDTAVYYCAADQVYGIGYEYWGQGTQVTVSS	low polyreactivity
QVQLVESGGGLVQAGGSLRLSCAASGSIFAGNTMGWYRQAPGKEREFVASIRSSSGSTYYADSVKGRFTISRDNAKNTVYLQMNSLKPEDTAVYYCAARVYHYREFWVNYWGHGTQVTVSS	high polyreactivity
QVQLVESGGGLVQAGGSLRLRCAASGSIFRYNPMGWYRQAPGKERELVAPISWSGGHTYYADSVKGRFTISRDNAKNTDYLQLNSLKPEDTAVYYWATVPRKTPGNAELDYWGQGTQVTVSS	high polyreactivity
QVQLVESGGGLVQAGGSLRLSCAASGRIFYYNTMGWYRQAPGKESELVAAISWSGGSTFYADSVKGRFTISRDNAKNTVYLQMNSLKPEDTAVYYCARYKLRSGRSGDHDDYWGQGTQVTVSS	high polyreactivity
QVQLVESGGGLVQAGGSLRLSCAASGRIFLRYTMGWYRQAPGKDRELVAAISGGGSTNYADSVKGRFTISRDNAKNTVYLQMNSLKPEDTAVYYCAADYIWLSHPYRRVDFYYWGQGTQVTVSS	low polyreactivity
QVQLVESGGGLVQAGGSLRLSCAASGSTFGPYAMGWYRQAPGKERELVAAIRSDGGTYYADSVKGRFTISRDNAKNTVYLQMNSLKPEDTAVYYCATRPINSYYDHDSWGQGTQVTVSS	high polyreactivity
QVQLVESGGGLVQAGGSLRLSCAASGFTFGWYDMGWYRQAPGKERELVASISWSGSSTYYADSVKGRFTISRDNAKNTVYLQMNSLKPEDTAVYYCATPYWRRYDYWGQGTQVTVSS	high polyreactivity
QVQLVESGGGLVQAGGSLRLSCAASGSIFGGYTMGWYRQAPGKERELVAAISRRGGNTYYADSVKGRFTISRDNAKNTVYLQMNSLKPEDTAVYYCAVRWPSARIPVKLDYWGQGTQVTVSS	high polyreactivity
QVQLVESCGGLVQAGSSLRLSCAASVITFYGYAMGWYRQAPGKERELVADITRGGSTNYADSVKGRFTISRDNAKNTVFLQMNSLKPEDSAVYYCAKSTRRFSWYYSTVGYNYWAQGTQVTVSS	high polyreactivity
QVQLVESGVGLVQAGGSLRLSSAASGFTFVSNDMGWYRQAPGKERELVAAIRYRGGDTYYADSVKGRFTISRDNAKNTVYLQMNSMKPEDTAVYYCAVDVATYTAGWYYHGYDYWGQGTQVTVSS	low polyreactivity
QVQLVESVGGLDQAGGSLRLSCAASGRIFRYYAMGWDRQAPGKERELVAAITSDGRTYYADSVKGRFTISRDNAKNTVYLQMNSLKPEDTAVYYCAADHHSYRYGGYYYWGQGTQVTVSS	low polyreactivity
QVQLVESGGGLVQAGGSLRLSCAASGSTFWHNAMGWYRQAPGKERELVAAISYSGGNTNYADSVKGRFTISRDNAKNTVYLQMNSLKPEDTAVYYCNAPDVFPQAIYDYWGQGTQVTVSS	high polyreactivity
QVQLVESGGGLVQAGGSLRLSCAASGITFGSNTMGLYRQAPGKERELVAVITWSGGSTYYADSVKGRFTISRDNAKNTVYLQMNSLIPEDTAVYDCAKPGEVNGQPPPQTESAYDYRGQGTQVTVSS	low polyreactivity

Sequence	polyreactivity (PSR sort gate)
EVQLVESGGGLVQAGGSLRLSCAASGSTFNWNDMGWYRQAPGKEREFVASISTTGSTNYADSVKGRFTISRDNAKNTVYLQMNSLKPEDTAVYYCNAEYGWYYWYGYWFYEGDYWGQGTQVTVSS	high polyreactivity
QVQLVESGGGLVQAGGSLRLSCAATGSTFYRNAMGWYRQAPGKEREFVAAISFRGGGTYADSVKGRFTISRDNAKNTVFLQMNSLKPEDTAVYYCADDHLSYRRRYEYWGQGTQVTVSS	low polyreactivity
QVHLVETGGGLVQAGGSLRLSCAASGFTFAYYAMGWYRQAPGKEREFVAVITWSGGDKYYADSVKGRFTISRDIAKNTVYLQMNSLKPVDTSVYYCNADAYRITRYGYDYWGQGTQVTVSS	high polyreactivity
QVQLVESGGGLFQAGGSLRLSCAASGSIFGYYAMGWYIQAPGKERELVARISYSGGTTYYADSVKGRFTISRDNAKNTVYLQMNSLKPEDTAVYYCNARIPYSWRYGYWGQGTQVTVSS	high polyreactivity
QVQLVESGGGLVQAGGSLRLSCAASGSTFTFNAMAWYRQAPGKEREFVAAITASGGRTYYADSVKGRFTISRDNAKNTVYLQMNSLKPEDTAVYYCNASQWPSRFDYWGQGTQVTVSS	low polyreactivity
QVQLVESGGGLVQAGGSLRLSCAASGGIFVTYAMGWYRQAPGKERELVAAITSGGTTYYADSVKGRFTISRDNAKNTVYLQMNSLKPEDTAVYYCAADPTNSYLEYDYWGQGTQVTVSS	low polyreactivity
QVQLVESGGGLVQAGGSLRLICAASGRTFRFYTMGWYRQAPGKERELVAGIRQRGGTTYYADSVKGRFTISRDNAKNTVYLQMNSLKPEDTAVYYCAADVYYPFYSPGFDYWGQGTQVTVSS	high polyreactivity
QVQLVESGGGLVQAGGSLRLSCAASGGIFIANAMGWYRQAPGKERELVAAISSSGGSTYYADSVKGRFTISRDNAKNTVYLQMNSLKPEDTAVYYCNKLLTRSYRTYGRYGYWGQGTQVTVSS	high polyreactivity
QVQLVESGGGIVQAGVSLRLSCAASGSTFESNAMGWYRQAPGKECELVASISGSGGSTFYADSVKGRFTISRDNAKNTVYLHMNSLKPEDTARYYCAAYKEPYYEESGYWGQVTQVTVSS	low polyreactivity
QVQLAESGGGLVQAGGSLRLSCAASGIIFYFYAMGWYRQAPGKERELVAAINSSSGRTYYADSVKGRFTISRDNAKNSVYLQMNSLKPEDTAVYYCAAYYYGSYDGTPYDYWGQGTQVTVSS	low polyreactivity
QVQLVESGGGLVQAGGSLRLSCAASGRTFTVYAMGWNRQAPGKEREFVATSSWSGGRTYYADSVKGRFTISRDNAKYTVYLQMNSLKPEDTAVYYCAAQEYTTRFYFNRDYWGQGTQVTVSS	low polyreactivity
QVQLVESGGGLVQAGGSLRLSCAASGSIFESYAMGWYRQAPGKERELVADITYDGGITYYADSVKGRFTISRDNAKNTVYLQMNSLKPEDTAVYYCATEYRYWQSDYSTYFPYDYWGQGTQVTVSS	low polyreactivity
QVQLVESGGGIVQAGGRLRLSCAASGSTFFKYARGWYRQAPGKERELVATMSGTGGRTYYADSVKGRFTISRDNAKNTVYLQMNSLKPEDTAVYYCAAGIYRPFFYTLDYWGQGTQVTVSS	low polyreactivity
QVQLVESGGGLVQAGGSLRLSCAASGIIFYTNAMGWYRQAPGKEREFVAAINTSGGITYYADSVKGRFTISRDNAKNTVYLQMNSLKPEDTAVYYCAADQTYERHWVYYWGQGTQVTVSS	low polyreactivity
QVQLVESGGGLVQAGGSLRLSCAASGSIFSWYAMGSYTQAPGKESELVAAITRGGSTYADSVKGRFTISRDNAKNTVYLQMNSLKPEDTAVYYCNAVYGVYDFNYWGQGTQVTVSS	low polyreactivity
QVQLVESGGGLVQAGGSLRLSCAASGFIWSYVMGWYRQAPGKERQLVAAISRSGGRTYYADSVKGRFTISRDNEKNTVYLQMNSLKPEDTAVYYCAKDGGWSRLHYNYWGQGTQVTVSS	high polyreactivity
QVQLVESGGGLVQAGGSLRLSCAASGSTFKRNAMGWYRQAPGNERELVAAITDNTSTTFYADSVKGRFTISRDNAKNTVYLQMNSLKPEDTAVYYCAADHSGGSRYDYWGQGTQVTVSS	low polyreactivity
QVQLVESGGGLVQEGGSLRLSCAASGRTFWYYGMGWYRQAHGKERELVAAISRSGGRTSYADSVKGRFTISRDNAKNTVYLQMIRLKPEDTAVYYCATDGYYRYGYWGQGTQVTVSS	high polyreactivity
QVQLVESGGGLVQAGGSLRLSCAASGSIFSAYAMGWYRQAPGKEREFVAGITSSGGRTYYADSVKGRFTISRDNAKNTVYLQMNSLKPEDTAVYYCAARFYKKDRRAYGYWGQGTQVTVSS	high polyreactivity
QVQLVESGGGLVQAGGSLRLSCAASGRIFTNNPMGWYRQAPGQERELVAAISRSGGRTYYADSVKGRFTISRDNAKNTVYLQRNCLKPEDTAVYYCAAVHLYYGYNSPFTMDYWGQGTQVTVSS	high polyreactivity
QVQLVESGGGLVQAGGSLRLSCAASGRIFYHYAMGWYRQAPGKERELVATINSSGTSTYYADSVKGRFTISRDNAKNTVYLQMNSLKPEDTALYYCAASTYNKMYYWGQGTHVTVSS	high polyreactivity
